Measurements published in publication PMC9294072.
Where two headings read alike, the source gives them in different places.

Key:
[1] = biological target: human N-terminal acetyltransferase D (hNatD) (human) (UniProt Q86UY6)
[2] = biological target: human N-terminal acetyltransferase D (hNatD) (human) (UniProt Q86UY6); remark: listed apart in the source
[3] = biological target: human N-terminal acetyltransferase D (hNatD) (human) (UniProt Q86UY6); remark: listed apart in the source

oncohistone H4/H2A pentapeptide S1L (from UniProt P62805 2-6)
kcat/Km of Nα-acetylation by hNatD (continuous fluorescence assay) [1]: 4.17 M⁻¹ s⁻¹

oncohistone H4/H2A pentapeptide R3H (from UniProt P62805 2-6)
kcat/Km of Nα-acetylation by hNatD (continuous fluorescence assay) [2]: 4830 M⁻¹ s⁻¹

oncohistone H4/H2A pentapeptide R3Q (from UniProt P62805 2-6)
kcat/Km of Nα-acetylation by hNatD (continuous fluorescence assay) [2]: 157 M⁻¹ s⁻¹

oncohistone H4/H2A pentapeptide G4V (from UniProt P62805 2-6)
kcat/Km of Nα-acetylation by hNatD (continuous fluorescence assay) [3]: 3500 M⁻¹ s⁻¹

oncohistone H4/H2A pentapeptide G4D (from UniProt P62805 2-6)
kcat/Km of Nα-acetylation by hNatD (continuous fluorescence assay) [3]: 483 M⁻¹ s⁻¹

oncohistone H4/H2A pentapeptide R3C (SGCGK)
kcat/Km of Nα-acetylation by hNatD (MALDI-MS assay) [2]: 1830 M⁻¹ s⁻¹
